We go through 47 sequences from the NTF2 design screens of Basanta et al. (2020).

A short description of the data set: protease stability score; higher = more stable; yeast display proteolysis, trypsin and chymotrypsin.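 Note: relative to predicted unfolded state with 0 unfolded-like and 1 meaning tenfold more protease.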
“NEDEEMIKTAIELLLRTWKTGDEHSLTELLDPHVRVHINGVDLHGRHAIHWLSRHMRFEEIRVDHFEIVNGRVHLETKVRIHYGDKSDTVESHVISLKVDGKWKTQRVQYH” registered a protease stability score of 0.954.

“EEEEENAKQFFHIWERSMRTGDEKTLHELADPHVRAVIGDKHHIGREEFHEVIRQTMEHIRVDDMILHTIMVYDGKVEILGRLVVRVGDKTHEVHVKIQVEKINGRWLLTELHIK” registered a protease stability score of 0.074.

With “DEHHEEIHRLVEIFLHLELTGDEDTWRELADPTAQIHIDGRDIHGMEDVLRVWEQFKKEMGIDHIRVKDYKVQGNFMHINTELEFNGRRVDSRIEIYIYDGRIKSVIIRYR”, the protease stability score was determined as 2.25.

In turn, “SEEERLLHEFWERLQHSHKTGNEEEYRKNIDPHARLDIDGREMHGWENFFHFFVEMRVHDLRIEDYRVQGDKVIVHTRVDGIVNGVRTEIHSELIIRKIDGRWFIEAMTIK” had a protease stability score of 1.07.

For “DEDRESARWLFEIHSRVFETGDEDSLHRLFDPNARFDINGREVHGMDLWIHLLKHIRVSVKDMKIRRHKSVNGRLETDYDSTLSFHVGDKTIELEVRVILVSHKVNGRWEIKEEIVH”, the protease stability score was 1.24.

As for “DEEEHRLRHFSELFTELFKTGDWKTFAKLMDPEVRTHSEWNGQEFSDHGMEAIVHFFKEFVDKFKNLTFHLTRIEVQGDKVHIDTILIFNGKTFTTRLEFIVVNGRIKEVRYHVK”, the protease stability score stood at 1.13.

On to “SEEEEIARRFISVWLHAFHTGDEKRLEEMIDPHVRVDYNGVEIIGRENWIEFMLTIMRNLGFNHIRVELDHLDFQGDKMRLETTLKRKVNGREERIDTRIHVKKIDGQWIFTHELYK”, for which the protease stability score is 0.795.

Sequence “DEERRSSEEYVRTLHDIIRTGDEDRLVRLADPHARLEVGEFHFHGREELEHFWRKIIEHFGHDKIEVRIESVEVQGEKIVNVGKLSVNGQEREIIFIALKYNGRWITRSIHLH” had a protease stability score of 1.59.

For “TEEEEELHKILERMIKHLVTGDEEAILKLADPDVRVHRIIDGRELDIVGRENLRHWLHELLRQLGVDHIDVKSVTLQGDKIHMTGTMKWNGKTEETRIIFEVVNGRLKRMEFHEI”, the protease stability score is 0.982.

“DEDTEAAIRILEDFTRHILTGDFERARELLDPHTRFDVNGVDLHGMDEVTRLLRIWKKRFDVWESDVHDVRSYDGRIHIDTHLRVRYDGVEEHTRTIFIFNKVNGRWLIEEIRVR” had a protease stability score of 1.44.

“TEEEEAKHLAQRIIEEDLRTGDWSRELRQIDPDVKTRVGDKTFHGMSALHYLLKQIDHPKSFTTHHIEVQGDKIKIDGELEGNINGVRTKIHTIFIVRKVNGRWLVETIIFE” had a protease stability score of 1.53.

Sequence “DEDERNLREFLRRMVEHWLTGNEESLKRLIDPEVRIHIGDKDLVGREEEERYHRQMRSDRLHVELDSVDIVGDKLQLHITIHIDSIVNGRRLDIKYRHTLHVRKINGRWILEESEIK” had a protease stability score of 0.814.

Sequence “SEDEEFSKEATETILRVIHTGDWDMIKDLADPNARIHVGNYNSWGREEVMRVIRELFEVLGIKHLIFTHVEIDVIDGVVHSIIHGYEEVGDKTIETHIDIVSKKIDGRWRLQRIEIHHR” registered a protease stability score of 1.29.

“SEDEEMARRFFEHLLHLWRTGDEEILRNLVDPDTQMQIGDKHLHGRDAVEHMIRRIDHVEVRKVRMREIRVQGDYVVIHVELDGTQEVNGKRIEQHIEFTVFVHKVDGRWIWRSIYQI” yielded a protease stability score of 1.37.

In turn, “DEEEKSLRFAIKMMEELIQTGDEDLFERLLDPDTRLRVGDKTFHGREQVLKWFEEWLKRMGADHVELRLHDMRVVGDKLDLDVEYRQYVGDKDIHDRRHLIIIKVNGRWYFKEVRIL” came in with a protease stability score of 1.67.

“DEDTHYARHIMELIIRNFITGDEDDLLRLMDPNTRLHINGVDNHGREEIKRDLERWWHRYPNITVIIRVEHMTAIDGKAHSEMRVQIHYNGVTYSRETRVILIVINGRLHSVEFRID” gave a protease stability score of 1.11.

As to “DEDFEHARRVLELFIESVETGDENSYRRLADPNTRYHAENHEHHGREYYIRLLEELRMSVHDLKIESWRLVDGQLRLNTRTDLHVNVNGQRIRLDTETHIVLNKINGRWYIHIIYIG”, the protease stability score is 1.27.

Regarding “DEEEKHLKKLKDMEWKLFETGNEDEIAKLADPNTRTEIDFNGVRIILHGRHVFAKYLTRWWRSLGIDHIRLEEMDIQGDYVTIRGKEDYNGKEKRVTIIIVIVDGRLKEIHVDVR”, the protease stability score amounted to 0.967.

“NEKEELLRKIMDMLIRHWETGDFEKLMELADPNVRLHYEQGDKEHHHHGREDVAKFIEELLRMLGVDHWHLEKIEIVGEKLHLHGRIHVNGRTIDLRIHWVVVNGVLKSVRIILG” registered a protease stability score of 1.14.

The sequence “SEEDKYAKLVIRLLEEMIRTGDEESSIRLADPHARVNINGKDMHGREEFTKWIRQFDVVRDFELKDSDYQGDFIFVDGVLDGEVGDKRMRTKVEIIIFKFNGKWRTKEVWVR” gave a protease stability score of 1.38.

Regarding “DEDEKRELARRFAKNFLHGDHDNIRDLADKDVDAQVGDQTFTGTEQLMRVVKEVRDRVDHFNLTSVDVHNGQADIHARAKVNGRDYRVKIRIKIHNGRILHVQFNRR”, the protease stability score was found to be 1.31.

For “DEQEESSRIIHKLIEHVAETGDWREWRKLLDPNTRLDVNGKEFHGWEKLLEHLEEHLDLLGVTKFTLRIQIRSMETQGNYVFIVGITHIHQGDKEIHRFTELIVLKINGKWLMKEIRFR”, the protease stability score stood at 1.37.

In turn, “DELERRSRDLVELFITALKTGDEDLFSRLIDPNALTWVGDKEQVGWHTDVKMFEDLGLTNFDFHLRSKEIRIIDGKLHTIINGSININGKETDTEIRITISKINGRWQLSSVFVRLH” showed a protease stability score of 0.786.

Regarding “DEDEDSFRRISKLLSHAFRTGDEDLVLELLDPHVRIVIGDKELHGWEQMDRWVRELRIRDHEIKRLDIQGDKAIVDTRLLTRVGDFHYLIDVRIIFTKVDGQWHVHQFEFH”, the protease stability score came to 1.52.

“DEEDELSHQIAEEFFRFFSTGNEEKSKELLDPDVRVESEDHHDHGMHKLLHLWNRIDHIHMRSRHVEFDRVGDFLEIRMRGHVILDVNGVRTEIDTELLLVVTKFDGRWLMHEVKFIIR” displayed a protease stability score of 0.696.

As for “SDELEEALKWLEELMRLTLTGNWDRLDELVDPNAKEVINGKELHGMHFFRRVLHEIRFTHIDVQDIRLQGNYVEVDLRVEGNIDGRHVDLHTEVILLKVNGRWLHKMRILR”, the protease stability score worked out at 1.56.

Consider “DEDTHEFRHFIELRRHNLETGNERALAELLDPNVRILFDGVDIVGRDSWIKHLRELGYEQVDSRVNIKRLEIWNGRAHMDGRVRRHFDGKTTEVDVHLVLVKFNGRWVIESIHNH”, for which the protease stability score stood at 0.555.

“DEEEDTARFLMELILHDLETGDEERLFRLMDPHTRLDIDGQQYHGRELVLQLHETLLERWGVERVEAFLRRTEIQGEKVLSDVHRHFNGVTVKTHIVLEKFNGRWSTKTLEYK” had a protease stability score of 0.6.

On to “DEKHEFVRRRIEEWLEALRTGDEDTLHRLADPNVKMNINGVERHGRESMLSLFEEFGVNHFHIRDVKIQGEKSFIDGEIRYGDKIHRVQMEIQVIDGVLESHKLRVH”, for which the protease stability score came out at 1.13.

Consider “REDEEQMSRFIKEMIHLLRTGDEDRLHELIDPHTRLDFDGKEIHGREEWSQFLKEIRFRRFEVKDFEIVNGVANVDGKMHGEFDGQRFTTRVHIYNVKINGRWVHKWEEIG”, for which the protease stability score was found to be 1.32.

As for “DEEERDSKRALELMIHWVETGNEERLSRLIDPHARLEIGDKHHHGREEFEKWFRRIDYLQYYTVRHIELQGDKIEVKVELTFIIDGQEVHTETRVIAIKFDGRWRLTSMEIN”, the protease stability score came to 1.54.

Take “DEQHEEAERAMEHMNRIEHTGDEDDLDRLMDPRTKIEVGDKELHGRHLWRVFLREARIHDSKIRDIRVIGDKVTFHTEVRITINGVEVRVHVIMIIEKVDGKWLVHRVIIR”: the protease stability score amounted to 1.35.

Consider “SEEEKELEEALKIQEEFWRTGDEHSLRELADPHARVHIDGRDLHGREFWSMLSNQLRIEHIEVKSVELVDGRLEADVHVTGRYNGRDVKTRMRLEIVKINGVWYLESTEIN”, for which the protease stability score was found to be 0.407.

“SEDEEFAKHASEIMSRILETGNEEETNRMMDPNVRLDWNGQDHVGREDVLRFRKLIIEILGIERIKVELHDVKTVNGRVHTDIIVNINGQEYRLRVFMTKVNGRWHVKFMEFE” yielded a protease stability score of 1.7.

With “DKFERDLEEALREVLEALETGDEDRLLNLFDPHARIDIDGRDLHGWEDLTRELREIRIRHIHLHDRRIQGEWIHFDTITDGEFNGQRTTVRTHILMLKFDGRWMIREVTFI”, the protease stability score was determined as 1.51.

For the sequence “DDEERQAREFLKNYIRSLLTGDEDTLDELVDPNARWHVGDYHMIGRDSVSFLTKHLRIKHIEIKDIEIYGNKAIVLVHMHGIIDGKERDTDIIIFVEKINGQWKVREHRIS”, the protease stability score was 1.15.

On to “DEDEEAARHFLEQWLEALLTGDEETLTKLLDPHTRLIVDGQELVGRELWLEFFKRIKNMKIHRTEIRHTTSIGDKITLNIHVDVEVDGKRRRFDVQYVILKVNGRWLLKQVNNH”, for which the protease stability score was 0.498.

Consider “REEDEQLKRFTDEFIQVQRTGNEDLLREYADPNVKIVVGDKELHGREEMLYVFREIRVHNSELKRMHIIDGRAEVHVTAHVRQGDKVIEVKLHIIIYKIDGRWVIESMQWE”, for which the protease stability score came to 1.01.

“DELTREMDRVHEELVRSLTTGDEDRLASMMDPNARLRIDGVNFIGRDKIREFWHQIDHSSMHLHHIHVYGDKIRLEGELILNFNGVEHNHETLMIIKKVDGKWVIESIHLK” came in with a protease stability score of 1.79.

Sequence “DEEEELVLRIMHELLKLVLTGDFKRLSELLDPNVRMEIVVGDKHIEEHGRERMSHWILEWLRHARVKEFRIHHLIAYDGQTDSNVRLNVRIGDKEHRFRVIVILQVIDGKIRSLTIIFE” gave a protease stability score of 1.51.

In turn, “SDDEQNVRDTFTEFVESMETGDEDHMLEMVDPHVRIEFENHSHIGRDNVHRWILFFKNATLRWKLERMHVYDGRVEIHSRMEVEVNGREIEFNIILHVRKVDGKWVIHEIRIH” displayed a protease stability score of 1.14.

Regarding “DESEEHSEIMLRILHHALRTGDEEEITRLLDPHVRVIIGDKHYHGWEDYVKTVFTTAKEMRMHIHITDSKVQGNYVHLDTRLLIHYNGKTFTYNTRLVTVKVNGQWRLHSETSH”, the protease stability score was found to be 1.

“SEEEEVAWEAVEILSTFILTGDFESLNKLFDPHVRVRIGDKELHGRETTNKIFRKEREEHGIEIRHIHVHDVHVINGRIHADVEHKIRINGKEDSRRVEWIIEKYNGRWIVREIRVH” yielded a protease stability score of 1.35.

As for “DEEEELTRLALEWLLKVSKTGDERLFREEFDPNVKLDINGRDFHGREEAVRVWLKFVHDAGFKHIEIERVLSFDGRLHLHGVEHIGDKEVETHILTEKFDGKWVMRSIKIN”, the protease stability score came to 0.301.

As to “DEEYESMKIAVERLVQAHKTGDEDFLRELADPHVRVEIGDKRMHGWDRFDEWFKFVHHHLRIKDVDMKEFHIQGNKMHVRLELHGHYNGRDLILERHVILLKVNGRWILHVVQLG”, the protease stability score came out at 2.3.

As for “DEDTEEWRHLLEEYREFIETGDEDYLRTMLDPHVRVVVNGRDHHGWKAFNFMLRHIRVRHVHIHDIRLFNGQVEVDSRIDGIVNGRRLIFRLDIVAFKIDGQWIAQSFTII”, the protease stability score is 1.65.

For “DDIEEILKEAFERLIHDLRTGNEDNLRSLIDPNVRLNWNGQELHGREHVLELLTRIKNLRIEDWTTKDQRYQGDKIEMDGILHTRIGDKEIHLETHIHVRKVDGRWKIEQLDFR”, the protease stability score worked out at 2.
